B1: A022600122 (other)
chain: DVQLVESGGGVVQPGGSLRLSCVASGYVHKINFYGWYRQAPGKEREKVAHISIGDQTDYADSAKGRFTISRDESKNTVYLQMNSLRPEDTALYYCRALSRIWPYDYWGQGTLVTVSSGGGGSEVQLVESGGGLVQPGGSLRLSCVASGFTFSSFAMTWVRRPPGKGLEWVATITNGGVTSYRDSVKGRFTISRDNAKNTLYLEMTSLNPEDTAVYICANARRTGPRAPTDIGSYRGQGTLVTVSSGGGGSGGGGSGGGGSGGGGSGGGGSGGGGSGGGGSEVQLVESGGGLVQPGGSLRLSCVASGSIFRSVFSSSTMEWYRQPPGKKRELVARIAPGDGTNYGALYADSVKGRFTISRDDAKKTVDLQMNSLKPEDTGVYFCASGVAWGQGTLVTVSSGGGGSGGGGSGGGGSGGGGSGGGGSGGGGSGGGGSEVQLVESGGGVVQPGGSLRLSCAASGFTFRSFGMSWVRQAPGKGPEWVSSISGSGSDTLYADSVKGRFTISRDNSKNTLYLQMNSLRPEDTALYYCTIGGSLSRSSQGTLVTVSSA
B2: A022600132 (other)
chain: DVQLVESGGGVVQPGGSLRLSCVASGYVHKINFYGWYRQAPGKEREKVAHISIGDQTDYADSAKGRFTISRDESKNTVYLQMNSLRPEDTALYYCRALSRIWPYDYWGQGTLVTVSSGGGGSEVQLVESGGGLVQPGGSLRLSCVASGFTFSSFAMTWVRRPPGKGLEWVATITNGGVTSYRDSVKGRFTISRDNAKNTLYLEMTSLNPEDTAVYICANARRTGPRAPTDIGSYRGQGTLVTVSSGGGGSGGGSEVQLVESGGGLVQPGGSLRLSCVASGSIFRSVFSSSTMEWYRQPPGKKRELVARIAPGDGTNYGALYADSVKGRFTISRDDAKKTVDLQMNSLKPEDTGVYFCASGVAWGQGTLVTVSSGGGGSGGGGSGGGGSGGGGSGGGGSGGGGSGGGGSEVQLVESGGGVVQPGGSLRLSCAASGFTFRSFGMSWVRQAPGKGPEWVSSISGSGSDTLYADSVKGRFTISRDNSKNTLYLQMNSLRPEDTALYYCTIGGSLSRSSQGTLVTVSSA
B3: A022600134 (other)
chain: DVQLVESGGGVVQPGGSLRLSCVASGYVHKINFYGWYRQAPGKEREKVAHISIGDQTDYADSAKGRFTISRDESKNTVYLQMNSLRPEDTALYYCRALSRIWPYDYWGQGTLVTVSSGGGGSEVQLVESGGGLVQPGGSLRLSCVASGSIFRSVFSSSTMEWYRQPPGKKRELVARIAPGDGTNYGALYADSVKGRFTISRDDAKKTVDLQMNSLKPEDTGVYFCASGVAWGQGTLVTVSSGGGGSGGGGSGGGGSGGGGSEVQLVESGGGLVQPGGSLRLSCVASGFTFSSFAMTWVRRPPGKGLEWVATITNGGVTSYRDSVKGRFTISRDNAKNTLYLEMTSLNPEDTAVYICANARRTGPRAPTDIGSYRGQGTLVTVSSGGGGSGGGGSGGGGSGGGGSGGGGSGGGGSGGGGSEVQLVESGGGVVQPGGSLRLSCAASGFTFRSFGMSWVRQAPGKGPEWVSSISGSGSDTLYADSVKGRFTISRDNSKNTLYLQMNSLRPEDTALYYCTIGGSLSRSSQGTLVTVSSA
B4: A022600133 (other)
chain: DVQLVESGGGVVQPGGSLRLSCVASGYVHKINFYGWYRQAPGKEREKVAHISIGDQTDYADSAKGRFTISRDESKNTVYLQMNSLRPEDTALYYCRALSRIWPYDYWGQGTLVTVSSGGGGSEVQLVESGGGLVQPGGSLRLSCVASGSIFRSVFSSSTMEWYRQPPGKKRELVARIAPGDGTNYGALYADSVKGRFTISRDDAKKTVDLQMNSLKPEDTGVYFCASGVAWGQGTLVTVSSGGGGSGGGGSGGGGSGGGGSGGGGSGGGGSGGGGSEVQLVESGGGLVQPGGSLRLSCVASGFTFSSFAMTWVRRPPGKGLEWVATITNGGVTSYRDSVKGRFTISRDNAKNTLYLEMTSLNPEDTAVYICANARRTGPRAPTDIGSYRGQGTLVTVSSGGGGSGGGGSGGGGSGGGGSGGGGSGGGGSGGGGSEVQLVESGGGVVQPGGSLRLSCAASGFTFRSFGMSWVRQAPGKGPEWVSSISGSGSDTLYADSVKGRFTISRDNSKNTLYLQMNSLRPEDTALYYCTIGGSLSRSSQGTLVTVSSA
B5: A022600135 (other)
chain: DVQLVESGGGVVQPGGSLRLSCVASGYVHKINFYGWYRQAPGKEREKVAHISIGDQTDYADSAKGRFTISRDESKNTVYLQMNSLRPEDTALYYCRALSRIWPYDYWGQGTLVTVSSGGGGSEVQLVESGGGLVQPGGSLRLSCVASGSIFRSVFSSSTMEWYRQPPGKKRELVARIAPGDGTNYGALYADSVKGRFTISRDDAKKTVDLQMNSLKPEDTGVYFCASGVAWGQGTLVTVSSGGGGSGGGSEVQLVESGGGLVQPGGSLRLSCVASGFTFSSFAMTWVRRPPGKGLEWVATITNGGVTSYRDSVKGRFTISRDNAKNTLYLEMTSLNPEDTAVYICANARRTGPRAPTDIGSYRGQGTLVTVSSGGGGSGGGGSGGGGSGGGGSGGGGSGGGGSGGGGSEVQLVESGGGVVQPGGSLRLSCAASGFTFRSFGMSWVRQAPGKGPEWVSSISGSGSDTLYADSVKGRFTISRDNSKNTLYLQMNSLRPEDTALYYCTIGGSLSRSSQGTLVTVSSA
B6: A022600131 (other)
chain: DVQLVESGGGVVQPGGSLRLSCVASGYVHKINFYGWYRQAPGKEREKVAHISIGDQTDYADSAKGRFTISRDESKNTVYLQMNSLRPEDTALYYCRALSRIWPYDYWGQGTLVTVSSGGGGSEVQLVESGGGLVQPGGSLRLSCVASGFTFSSFAMTWVRRPPGKGLEWVATITNGGVTSYRDSVKGRFTISRDNAKNTLYLEMTSLNPEDTAVYICANARRTGPRAPTDIGSYRGQGTLVTVSSGGGGSGGGGSGGGGSGGGGSEVQLVESGGGLVQPGGSLRLSCVASGSIFRSVFSSSTMEWYRQPPGKKRELVARIAPGDGTNYGALYADSVKGRFTISRDDAKKTVDLQMNSLKPEDTGVYFCASGVAWGQGTLVTVSSGGGGSGGGGSGGGGSGGGGSGGGGSGGGGSGGGGSEVQLVESGGGVVQPGGSLRLSCAASGFTFRSFGMSWVRQAPGKGPEWVSSISGSGSDTLYADSVKGRFTISRDNSKNTLYLQMNSLRPEDTALYYCTIGGSLSRSSQGTLVTVSSA
B7: A022600105 (other)
chain: DVQLVESGGGVVQPGGSLRLSCVASGYVHKINFYGWYRQAPGKEREKVAHISIGDQTDYADSAKGRFTISRDESKNTVYLQMNSLRPEDTALYYCRALSRIWPYDYWGQGTLVTVSSGGGGSGGGGSGGGGSGGGGSEVQLVESGGGLVQPGGSLRLSCVASGFTFSSFAMTWVRRPPGKGLEWVATITNGGVTSYRDSVKGRFTISRDNAKNTLYLEMTSLNPEDTAVYICANARRTGPRAPTDIGSYRGQGTLVTVSSGGGGSGGGGSGGGGSGGGGSGGGGSGGGGSGGGGSEVQLVESGGGVVQPGGSLRLSCAASGFTFRSFGMSWVRQAPGKGPEWVSSISGSGSDTLYADSVKGRFTISRDNSKNTLYLQMNSLRPEDTALYYCTIGGSLSRSSQGTLVTVSSA
B8: A022600104 (other)
chain: DVQLVESGGGVVQPGGSLRLSCVASGYVHKINFYGWYRQAPGKEREKVAHISIGDQTDYADSAKGRFTISRDESKNTVYLQMNSLRPEDTALYYCRALSRIWPYDYWGQGTLVTVSSGGGGSGGGSEVQLVESGGGLVQPGGSLRLSCVASGFTFSSFAMTWVRRPPGKGLEWVATITNGGVTSYRDSVKGRFTISRDNAKNTLYLEMTSLNPEDTAVYICANARRTGPRAPTDIGSYRGQGTLVTVSSGGGGSGGGGSGGGGSGGGGSGGGGSGGGGSGGGGSEVQLVESGGGVVQPGGSLRLSCAASGFTFRSFGMSWVRQAPGKGPEWVSSISGSGSDTLYADSVKGRFTISRDNSKNTLYLQMNSLRPEDTALYYCTIGGSLSRSSQGTLVTVSSA
B9: A022600096 (other)
chain: DVQLVESGGGLVQPGGSLRLSCVASGYVHKINFYGWYRQAPGKEREKVAHISIGDQTDYADSAKGRFTISRDESKNTVYLQMNSLRPEDTALYYCRALSRIWPYDYWGQGTLVTVSSGGGGSGGGGSGGGGSGGGGSGGGGSGGGGSGGGGSEVQLVESGGGLVQPGGSLRLSCVASGFTFSSFAMTWVRRPPGKGLEWVATITNGGVTSYRDSVKGRFTISRDNAKNTLYLEMTSLNPEDTAVYICANARRTGPRAPTDIGSYRGQGTLVTVSSGGGGSGGGGSGGGGSGGGGSGGGGSGGGGSGGGGSEVQLVESGGGVVQPGGSLRLSCAASGFTFRSFGMSWVRQAPGKGPEWVSSISGSGSDTLYADSVKGRFTISRDNSKNTLYLQMNSLRPEDTALYYCTIGGSLSRSSQGTLVTVSSA
B10: A022600102 (other)
chain: DVQLVESGGGVVQPGGSLRLSCVASGYVHKINFYGWYRQAPGKEREKVAHISIGDQTDYADSAKGRFTISRDESKNTVYLQMNSLRPEDTALYYCRALSRIWPYDYWGQGTLVTVSSAAAEVQLVESGGGLVQPGGSLRLSCVASGFTFSSFAMTWVRRPPGKGLEWVATITNGGVTSYRDSVKGRFTISRDNAKNTLYLEMTSLNPEDTAVYICANARRTGPRAPTDIGSYRGQGTLVTVSSGGGGSGGGGSGGGGSGGGGSGGGGSGGGGSGGGGSEVQLVESGGGVVQPGGSLRLSCAASGFTFRSFGMSWVRQAPGKGPEWVSSISGSGSDTLYADSVKGRFTISRDNSKNTLYLQMNSLRPEDTALYYCTIGGSLSRSSQGTLVTVSSA

biological target: T1, human GPC3 on tumor cell lines (HepG2, Huh-7, NCI-H661, MKN-45, NCI-H23, BxPC-3, NCI-H292) (human, UniProt P51654 25-554); test: cell-based or functional assay

Row | Binder | HepG2 on Incucyte IC50 [nM] | HepG2 on Incucyte Max % killing [%] | Huh7 on xCELLigence IC50 [nM] | Huh7 on xCELLigence Max % killing [%]
1 | B1 | 0.53 | 93 | 0.261 | 101
2 | B2 | 0.683 | 83 | 0.29 | 95

biological target: T1, human GPC3 on tumor cell lines (HepG2, …); test: cell-based or functional assay; remark: another data set of the same source

Row | Binder | IC50 (M), Incucyte human TDC HepG2-Nuclight green assay [M] | Max % Killing, Incucyte human TDC HepG2-Nuclight green assay [%]
3 | B3 | 5.28e-10 | 92
4 | B1 | 4.45e-10 | 92
5 | B4 | 4.08e-10 | 92
6 | B2 | 7.02e-10 | 91
7 | B5 | 6.11e-10 | 91
8 | B6 | 4.44e-10 | 94

biological target: T1, human GPC3 on tumor cell lines (HepG2, …); test: cell-based or functional assay; remark: another data set of the same source

Row | Binder | IC50 (M), Incucyte human TDC HepG2-Nuclight green assay [M] | Max % Killing, Incucyte human TDC HepG2-Nuclight green assay [%]
9 | B7 | 2.14e-09 | 85
10 | B8 | 2.13e-09 | 90
11 | B9 | 1.4e-09 | 72
12 | B10 | 1.72e-09 | 94
